According to the domain aggregation screens of Martell et al. (2025):

Assay: soluble fraction after stress (log2 fold change); higher = more stays soluble; pooled small domains, quantitative proteomics
Settings: stress: 75 degC
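Also: 20 min heating vs room temperature control held 20 min.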

Point of comparison: “HMTIGEALLNLRKQLGLNQTEMAANVVSTSFYSKVERNIHDIGTKDLLQILNKHQINATYFFENLN”, “soluble fraction (log2)” value -1.82. Against it:
- HMTFFDDLLYQAKAAVDNDPSIKPSLHNRAIIEILYQQGVFNMKNAVEHVAELLEISKNTVYLHLRSVKG — higher, -1.06
- HMTFGEMLQYTNRLKEILESNAPQSIKDRRLANLMTDLEQAYGIPILRDQEFEKENPFLMQLYRTIS — lower, -2.4
- HMTFKDIMENYTISRIENTINSAVVFLDEINAYITIDKTQLPSNLRYDTDSKIMASQIPDDAKIKYFMIYW — lower, -2.12
- HMTFPIDINRADTEQLTALPGIGEVLAKRIIAYREENGSFLSTDELKNVEGIGEKRLEAIVDLITIG — higher, 0.145
- HMTFSDKIRELRKQKGVSQAVVAEYLGITKQAYSLYETGKREPDFDSLLKLAEYFGTDTDSLLY — higher, -1.52
- HMTGEEVLIMLGEKMKLIRNYNGYSQRQIAEILKIERSTYASYETGRNRPDIFAVQRFAKIFNVSVDYIL — higher, -0.244
- HMTGELEVTAAGLSPEKLLNLAAKNHITLSNVKRLSYTQLSFRIGPADYNRLKKLLPEGRYKLNVGSS — lower, -2.28
- HMTGESIPFSKFLSEVDSGRVINVEIQGNNISGLLSDGNKFKTYSPNYPNLVEILSEKEVSIVATPLE — higher, 0.0122
- HMTGGLTQEQISQLRMLTPQQIEQLRQLQPQQVEMLRQLRPEQVMLLTQLEPQQIMAFMRLEPSVIMQL — higher, -0.261
- HMTGGMVTYIIEKGEGFFSLERKFGLSENELIKLNPSLKSGLKSEMQINIPKENYDRYVASS — higher, -0.45
- HMTGIESVKPSSDFTVEGNRIVAGDAEVEVYDLAGRKVNNNNLTTGVYIAKIAGSAESVKVFV — higher, 0.144
- HMTGIQDVPALETRRVGNTFFFDRATDVQVYDLQGRLLQQARKVTSVSIGHLQQGVYVLTDGRASVKVQ — higher, -1.51
- HMTGIQLNDRERAILQHLSDGLTTKAIAERIFLREDTVKWYRKNLLARFEQPIVAALVKWAVLEGLV — higher, 0.0483
- HMTGIVVVDVVGQVGRPGLVSLPAGSRVADAITAAGGATPEADVSLLNQARLVIDGEQIRVPRPGEVIAA — higher, -0.0555
- HMTGKVSHGERKSVLVSLAGSMRARGMSIDAVRAGLYADNEKRFDPPLDERDIEDVLNSAKKWGDP — higher, -0.352
- HMTGMDALIGRRVFVSEEILPGDAGGRVAVDGDSWRAISVGTAKPIPAGTEVRIHGYKSLILEVEPI — higher, -0.788
- HMTGQHFDLEDTDGNLVYEIDSTVPLKTFYIYDAMHTEIFRMTKELLHALPTYRFYLYGEPYGVLKKQ — higher, -0.192
- HMTGRVKWYDATKGFGFVTSDEGGDVFLPKGALPAGVADLKTGQRIEFGVVDSRKGAQALGVK — higher, 0.352
- HMTGSAETRGITLTDEQVTVWAKDGSWANYVYRATDGNWYDGSGRLYYENGGGEWTQAATGEQGS — higher, 0.126
- HMTGSALDATIEKLLDLGSKAGSVTEDEIQIVLKNVDVTDAQLSSIYQFLRDRGVEIVSATEDDD — higher, 0.371
- HMTGVPYLVRVKITDLHIRSGPGTNYASKGFIAPGAYTIVEESTGQGAALWGKLKSGKGWIALGYTEK — lower, -2.13
- HMTHAISKTYAVTGEQLKNGFTLTHTFANGSTRRVDVYPGSRSGKVIAVRNTTDDTTEWIRIVEG — higher, -0.2
- HMTHSEYVGRHGIAATSLRPAGAATIDGSRVDVVTSGEYIEKGTPIEVMTVNGSTVRVKAVPQIP — higher, 0.203
- HMTIDANAIEKMVLDLIGEHPNEWGRYRDGDKKVQGFFVGQIMKATSGQADGKIVNQILSQHAEA — higher, -0.0337
- HMTIELAEGQHFLQISKSGAPMGNVVRDLIIQTLKITNGNQIKAAKILGISRAKLRYRIEQLGINITGKNI — lower, -2.81
- HMTIERVKIKETPTGWLRVRETPDNNGSEIGRANVGEIYELLGSKGEWYHIVYKGKQGFISTKYAEKVL — higher, -0.999
- HMTIHVMEIKSLLPIKILDESQHLVQSFSSKNPTSYNYRLIFSDKSKLENIKKTINENKDVESIEIRYA — higher, -0.885
- HMTILTSSQRKALISKMIRQGGVESQSHLVKLLAREGVKVTQATASRDLEDLGATRVRDANGEFQYVIP — higher, -1.16
- HMTINQIDPASGRKVGYWIITGEMKPKEGFSPDNKIEEGIYVNSRKSGKWIKYWPNGNVRSEIIYKNGR — higher, -0.677
- HMTITPEVIVNHFKNLDLFFTKNGNYYEFKKKGTENILFKYGIYKQKPNIFVKIQRYPISSLSDLERIPI — higher, -1.53
- HMTIYLSENIKRLRLEKELTQETLSEFLGVTSQSVSNWERGESYPDITMLPEIADFFKVSVDELLGVNRAE — lower, -2.26
- HMTIYPFNPNYLKDYQAYRVGLSLKEIDALLDFRSSGQWINSAEDFQRITGVSDSVLEQLIPYFKFS — lower, -2.98
- HMTKASYKITTPSGVNVREGAGKRYAVRKAYPKGKTVTVTQTKEVNGNLWGKTSDGWFAIKYQGAVYASA — higher, -1.39
- HMTKDEFLTTLRTLIQDMPPEDRRDVMNYYTEYFEDAGPEREQEVLRQLGSPEQVAREVLGG — higher, -0.0428
- HMTKDVIEIVDGNKFVFHKTIATDSVSSVINKYHISEADFRTWNELTGDMKVGEEYIVQLSLH — higher, -0.87
- HMTKKFQIQTLDKLNVRKVADWNASAVTTVKKGQILDVVAEVSPKNGSTKMYKLESGLYITASEKYVKKQG — within 0.2 log units, -1.65
- HMTKLPLLVELSRIIPTDTWVKKIKFSLGSVEFVGISKSASRLLPIVENSSYFHDTKFIGTIVT — higher, -0.547
- HMTKNIIVTTSVKTSDELVEVAKNHALNLELDFNYRNKKTIKELLSSFDGLVVIYKNKISYFEDNSELF — higher, 0.335
- HMTKQDYLTALQQELNKNAVADAEDIVSEYEQHFQFKLADGFTEEEIAAKLGAPAQIALQFAG — higher, 0.826
- HMTKQRSIILDLLKANQDRHLTAEEMLELLNQNHTPVSKATLYRYLDMLVSQNAVRKFIIDDQPSAGYQYL — within 0.2 log units, -2
- HMTKSTSMDLGGFMIVEGSETVRLGGQILQKDVDYTIDYFSGKINFISEEALNPGAEISVSYEENQ — higher, -0.225
- HMTKTEFLEALRRALNGNMAAASVEDNLKFYENYFYSEEAKGRSEAAVLSELGDPRILARTLIDAAER — higher, 0.154
- HMTKTEFLNLLEQRLFVLNDNERADLLSEYKQHIEMKIQSGLSEEEAIADFGDPEELIKELLEAY — higher, -0.956
- HMTKTFDSPEDADNDVLAKTLFQIFGVQSVYLKENFVTITKSNSVGWHTLMEKTGHTLEEHLKF — higher, 0.0905
- HMTKTKFLSKDMILSAMSRTKSNRAAARYLSVSFVHYKKYAREYKDETSGVSLWEKHKNQSGTGIPK — lower, -2.11
- HMTKTSQEDEDIMRHLDELHTRWPFLGQRKLIEELKDQGIQIGRKRLRRLMKVMGIEAIAPK — lower, -2.12
- HMTKVMVPNVVGMSRGEAEEALRGVKLQVDLKREVSDDPEVKPEEVLRQTPDAQTSVPQGSVVTLYVADKP — higher, 0.0285
- HMTKYEKKIFEIVNASRDHLTAEQVLAALREEYPAVSQATVYNNLKKLTSDGLLRKLTLADSPDRYD — higher, -0.202
- HMTLAAATESREYLADLARRLDAADHGDKTRIKAEAAGLLGWSMATLHARLARDVGWTSGRK — higher, -0.241
- HMTLDEFTDLMNLFKTGHIEQKPVILYGYNYWTSLKSWFEFNNMKFPEMYIDGIINTVDEFKILYNKIF — higher, -1.38
- HMTLGPKQMGEAIIKNLKEKTGKSLEEWSQRILIHELTDKKEIIDFLKNDNGLGHFQALKIFEHLNGK — higher, -0.281
- HMTLGQHIQALRKEAGYSQEALGEALGVTRQSISKWESDQAIPEVDKLVTLSRLFQVPVGVLLQVEQP — higher, -0.348
- HMTLGSVRTVRQVLDDGRLLVADSGGNVTLVRRAGTLAKENVNTGDRVSVDSSVRFALTLIPV — higher, -0.931
- HMTLPEKSKRLFSQDDFWDQIFYRIGEGQSLREVSKYYKIPYTTIHDRIHSDEGIKLKYLEALTS — higher, -0.882
- HMTLPQEPTVLPRPLRVGDTVHIRTLDKDAEVLALPDARGMVAVRAGIINTKVKLTDLTLVEEK — higher, -0.0272
- HMTLRDRDQALEELWGQLADVPMDSETERLLEPFMGWGVGVSRDEIWHWFDRRHSKGIGHLLYS — higher, -1.42
- HMTLSENEKIIVDTIMKYQPLHIDVLNQQVKVDFYTLLGLLTKLEMEGIVLKNPGNIYKINTL — higher, -0.378
- HMTLTPEQQAARRSEIVDIALRLIAENGFQKTSMREIADLAKMGKSSLYDFFKTKDEIAVYAMEKK — higher, -0.714
- HMTMEFGEFLAKLRKERGYYQKEVAAYLNVTVATISNYEKNVHAPDLDTLVKLADFYDVSTDYLLQRT — lower, -2.7
- HMTMGAAEAQALKDEALELYRTGGTQEDVVRAIEMYEQAAEAGNAQAASDLAYLKANGVYETAMNN — higher, 0.263
- HMTMQQGTISRLNHSRGFGFLTTPDGEDLFFHRTNVHETPFARLQVGDRVTYDVQVTPRGTRADKVQLNM — higher, -0.261
- HMTMRFVVADGQNFGSIAQSKALEAVKKGNTEFNYKDVDYTVDIQSDDFYVVYQGRDIMGYASR — higher, -1.11
- HMTMTIEITVNGKTKTLVAELSLADLLRDLGMTKGRIAVELNGHIVPRSQFSSKTISNLDSIEIVQ — lower, -3.43
- HMTNADRYIGQEATVTEKISNELSTGAVRIGGLVWTARTVDNSEAEEGERVTVEAIEGAKLLVKRR — higher, 0.132
- HMTNEPRLTNMGFNKMLIENYKMILEYQDFFIRISTQIGIININGFDLKLGEMTADEVLVTGKIESIDL — higher, 0.429
- HMTNIDRLIGQTAIVKETINNKKEQGVVRINGMDWTARTEEIDEVILKGKPVEILDIQGIKLIVRKK — higher, -0.545
- HMTNIELYQRLLNLGFTPAQAKILLVQYDETRLTDNLNYVDFKKQQGNIENLPAYTTTIIKKDVRL — higher, -1.14
- HMTNIQFINLKMTDNHPWIHQYIKDIILPPQTRIVMIKRNDIKTIPKGERRIEKDDELILSAFESQT — lower, -2.06
- HMTNKKIILEIFQNSDKPLIVEEISKKMFEKTGKKMILSTIYRNLKNMEDVGILKKIYNEDGSYMYIF — higher, -1.02
